Tests used:
[1] = target: T1, recombinant hSIRPg-His (Sino Biologicals, reference 11828-H08H) (human, UniProt Q9P1W8 29-360); test: BLI (Blitz); SIRPg-His on Ni-NTA biosensor, antibody at 10 ug/ml or 20 ug/ml (Example 9) [B, table A]
T1 construct: also called human SIRPg-His; not shown: His tag
Experimental: (§1) FIG. 8. (A) Affinity analysis by Blitz of anti-SIRP antibodies on human SIRPg recombinant protein. SIRPg-His recombinant protein was immobilized onto a NINTA biosensor and the indicated antibodies were added at 10 μg/ml. […] (B) Binding analysis by ELISA assay of anti-SIRP antibodies on SIRPg (human SIRPg-His coating and anti-human kappa detection).
(§2) Method: This method was performed with a Blitz (Forte Bio; USA; reference C22-2 No 61010-1). Recombinant hSIRPg-His (Sino Biologicals, Beijing, China; reference 11828-H08H) was immobilized at 10 μg/ml by histidine tail into a Ni-NTA biosensor (Forte Bio; USA; reference 18-0029) for 30 seconds. Then, an anti-SIRPa antibody was associated at 20 μg/mL for 120 seconds. The dissociation of anti-SIRPa antibody was made in kinetics buffer for 120 seconds. Analysis of data was made with the Blitz pro 1.2 software, which calculated association constant (ka) and dissociation constant (kd) and determined the affinity constant KD […].

[2] = target: T2, recombinant hSIRPa (Sino Biologicals, reference 11612-H08H) (human, UniProt P78324 31-370); test: ELISA on immobilized hSIRPa-His, anti-human IgG detection, second experiment
T2 construct: also called SIRPa-His; human SIRPa-His; not shown: His tag (histidine tail)
Experimental: (§3) Method: The binding activity of the anti-SIRPa antibodies was assessed by ELISA.

[3] = target: T2, recombinant hSIRPa (Sino Biologicals, …); test: ELISA on immobilized hSIRPa-His, anti-human IgG detection, first experiment; first experiment
Experimental: as §3

[4] = target: T2, recombinant hSIRPa (Sino Biologicals, …); test: competition ELISA on immobilized SIRPa-His; competitor biotinylated CD47-Fc at 6 ug/ml, streptavidin-peroxidase [second experiment table]
Experimental: Method: For competitive ELISA assay, recombinant hSIRPa (Sino Biologicals, Beijing, China; reference 11612-H08H) was immobilized on plastic at 0.5 μg/ml in carbonate buffer (pH9.2).

[5] = target: T2, recombinant hSIRPa (Sino Biologicals, …); test: SPR (Biacore); SIRPa-His immobilized on CM5 chip, antibody injected
Experimental: FIG. 2. Affinity analysis by Biacore of anti-SIRP antibodies on human SIRPa recombinant protein. SIRPa-His recombinant protein was immobilized onto a CM5 chip at 5 μg/ml (500 RU) and the indicated antibodies were added at different concentration.
Method: Recombinant hSIRPa (Sino Biologicals, Beijing, China; reference 11612-H08H) was immobilized into a CM5 sensor chip (GeHealthcare; France) at 5 μg/ml (500 RU) and antibodies were applied at different concentrations with a flow rate of 40 μl/min. Analysis was performed with a BIAcore 3000 (Biacore, GeHealthcare).

[6] = target: T3, recombinant hSIRPb-His (Antibodies-online, reference ABIN3077231) (human, UniProt Q5TFQ8 30-371); test: BLI (Blitz); SIRPb-His on Ni-NTA biosensor, antibody at 20 ug/ml [B, table A]
T3 construct: also called SIRPb-His (Blitz); not shown: His tag
Experimental: as §1, with “7.” for “8.”, “SIRPb” for “SIRPg”, “SIRPb-His” for “SIRPg-His”, “20” for “10”, “analysis” for “analysis by ELISA assay”, “antibodies” for “antibodies on SIRPg”
as §2, with “hSIRPb-His (Antibodies-online; USA;” for “hSIRPg-His (Sino Biologicals, Beijing, China;”, “ABIN3077231)” for “11828-H08H)”

CTLA4-Fc = target: T4, CTLA4-Fc (human, UniProt P16410 36-161, limits assumed); test: ELISA: modified antibody (concentration on the axis) captured on SIRPa-His, then CTLA4-Fc, detected with mouse anti-human CTLA4 [panel CD80]
T4 construct: not shown: Fc; not specified

[7] = target: T2, recombinant hSIRPa (Sino Biologicals, …); test: ELISA on immobilized SIRPa-His, peroxidase anti-human IgG, DO 450nm [panel CD80]
Experimental: Method: For ELISA assay, recombinant hSIRPa (Sino Biologicals, Beijing, China; reference 11612-H08H) was immobilized on plastic at 0.5 μg/ml in carbonate buffer (pH9.2) and different modified anti-SIRPa antibodies were added to measure binding to SIRPa.

[8] = target: T2, recombinant hSIRPa (Sino Biologicals, …); test: ELISA on immobilized hSIRPa-His, anti-human IgG detection, third experiment
Experimental: as §3

T1 sequence (Q9P1W8 29-360 limits assumed): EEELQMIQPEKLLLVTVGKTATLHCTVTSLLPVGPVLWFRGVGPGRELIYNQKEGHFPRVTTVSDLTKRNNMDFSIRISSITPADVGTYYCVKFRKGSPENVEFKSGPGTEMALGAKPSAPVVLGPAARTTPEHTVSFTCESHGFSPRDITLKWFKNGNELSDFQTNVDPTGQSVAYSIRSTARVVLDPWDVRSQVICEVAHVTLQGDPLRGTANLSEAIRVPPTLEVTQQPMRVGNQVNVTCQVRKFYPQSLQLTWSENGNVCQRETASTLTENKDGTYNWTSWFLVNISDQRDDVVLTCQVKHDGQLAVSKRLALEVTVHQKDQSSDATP
T2 sequence (P78324 31-370 limits assumed): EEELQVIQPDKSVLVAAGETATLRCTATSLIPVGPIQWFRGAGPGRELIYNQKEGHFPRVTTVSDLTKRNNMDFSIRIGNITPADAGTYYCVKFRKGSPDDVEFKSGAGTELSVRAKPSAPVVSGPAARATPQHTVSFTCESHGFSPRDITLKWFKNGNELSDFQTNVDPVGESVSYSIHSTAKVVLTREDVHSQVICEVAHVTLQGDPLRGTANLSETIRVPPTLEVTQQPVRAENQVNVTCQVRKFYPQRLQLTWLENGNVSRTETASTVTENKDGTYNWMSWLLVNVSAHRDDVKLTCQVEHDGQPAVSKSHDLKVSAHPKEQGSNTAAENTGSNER
T3 sequence (Q5TFQ8 30-371): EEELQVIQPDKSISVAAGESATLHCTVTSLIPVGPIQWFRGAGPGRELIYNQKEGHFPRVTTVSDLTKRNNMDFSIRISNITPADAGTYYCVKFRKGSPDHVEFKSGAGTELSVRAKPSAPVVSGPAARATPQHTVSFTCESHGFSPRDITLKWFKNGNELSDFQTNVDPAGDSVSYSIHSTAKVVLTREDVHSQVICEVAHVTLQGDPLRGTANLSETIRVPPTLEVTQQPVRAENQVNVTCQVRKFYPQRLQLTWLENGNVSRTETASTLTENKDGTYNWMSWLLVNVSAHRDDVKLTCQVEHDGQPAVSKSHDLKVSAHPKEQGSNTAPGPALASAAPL
T4 sequence (P16410 36-161 limits assumed): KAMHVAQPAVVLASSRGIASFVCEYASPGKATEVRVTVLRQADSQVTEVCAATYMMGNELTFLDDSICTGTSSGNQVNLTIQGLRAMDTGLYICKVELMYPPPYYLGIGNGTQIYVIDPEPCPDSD

Binder	Kd [1] [nM]	koff [1] [s⁻¹]	kon [1] [M⁻¹ s⁻¹]	EC50 [2] [ng/mL]	EC50 [3] [ng/mL]	Kd [6] [nM]	koff [6] [s⁻¹]	kon [6] [M⁻¹ s⁻¹]	EC50 [8] [ng/mL]	other results
HFLA (antibody, human IgG4 S228P, kappa, V domains shown, humanized 18D5 variant) VH: EVQLVQSGAEVKKPGESLRISCKASGYSFTSYWVHWVRQMPGKGLEWMGNIDPSDSDTHYSPSFQGHVTLSVDKSISTAYLQLSSLKASDTAMYYCVRGGTGTMAYFAYWGQGTLVTVSS VL: DVVMTQSPLSLPVTLGQPASISCRSSQSLVHSYGNTYLYWYQQRPGQSPRLLIYRVSNRFSGVPDRFSGSGSGTDFTLKISRVEAEDVGVYFCFQGTHVPYTFGGGTKVEIKR	47.6	0.0118	248000	4.61	5.1	25.8	0.00192	74500	–	IC50 [4]: 146 ng/mL; Kd [5]: 0.217 nM; koff [5]: 0.000186 s⁻¹; kon [5]: 857000 M⁻¹ s⁻¹
HALA (antibody, human IgG4 S228P, kappa, V domains shown, humanized 18D5 variant; also called humanized 18D5 variant HALA) VH: EVQLVQSGAEVKKPGESLRISCKASGYTFTSYWVHWVRQMPGKGLEWIGNIDPSDSDTHYNQKFKDHVTLSVDKSISTAYLQLSSLKASDTAMYYCVRGGTGTMAWFAYWGQGTLVTVSS VL: DVVMTQSPLSLPVTLGQPASISCRSSQSLVHSYGNTYLYWYQQRPGQSPRLLIYRVSNRFSGVPDRFSGSGSGTDFTLKISRVEAEDVGVYFCFQGTHVPYTFGGGTKVEIKR	46.1	0.00709	154000	–	3.9	6.4	0.00085	133000	–	–
HEFLA (antibody, human IgG4 S228P, kappa, V domains shown, humanized 18D5 variant) VH: EVQLVQSGAEVKKPGESLRISCKASGYSFTSYWVHWVRQMPGKGLEWMGNIDPSDSDTHYSPSFQGHVTLSVDKSISTAYLQLSSLKASDTAMYYCVRGGTGTLAYFAYWGQGTLVTVSS VL: DVVMTQSPLSLPVTLGQPASISCRSSQSLVHSYGNTYLYWYQQRPGQSPRLLIYRVSNRFSGVPDRFSGSGSGTDFTLKISRVEAEDVGVYFCFQGTHVPYTFGGGTKVEIKR	52.4	0.0114	217000	–	7.1	12.4	0.00122	98300	–	IC50 [4]: 191 ng/mL; Kd [5]: 0.264 nM; koff [5]: 0.000148 s⁻¹; kon [5]: 559000 M⁻¹ s⁻¹
modified anti-SIRPa HEFLB antibody with ECD of CD80 on the heavy chain (antibody, human IgG4 S228P, kappa, as m25, ECD of CD80; also called VHprot+VL (CD80); VH-CD80) heavy: not shown light: DVVMTQSPLSLPVTLGQPASISCRSSQSLVHSYGNTYLYWFQQRPGQSPRLLIYRVSNRFSGVPDRFSGSGSGTDFTLKISRVEAEDVGVYYCFQGTHVPYTFGGGTKVEIKRTVAAPSVFIFPPSDEQLKSGTASVVCLLNNFYPREAKVQWKVDNALQSGNSQESVTEQDSKDSTYSLSSTLTLSKADYEKHKVYACEVTHQGLSSPVTKSFNRGEC	–	–	–	–	–	–	–	–	–	binding result (CTLA4-Fc): binds; EC50 (read off the curve) [7]: ~8 ng/mL
modified anti-SIRPa HEFLB antibody with ECD of CD80 on the light chain (antibody, human IgG4 S228P, kappa, as m32, ECD of CD80; also called VH+VLprot (CD80); HEF + LB-CD80) heavy: not shown light: DVVMTQSPLSLPVTLGQPASISCRSSQSLVHSYGNTYLYWFQQRPGQSPRLLIYRVSNRFSGVPDRFSGSGSGTDFTLKISRVEAEDVGVYYCFQGTHVPYTFGGGTKVEIKRTVAAPSVFIFPPSDEQLKSGTASVVCLLNNFYPREAKVQWKVDNALQSGNSQESVTEQDSKDSTYSLSSTLTLSKADYEKHKVYACEVTHQGLSSPVTKSFNRGECGGGGSGGGGSGGGGSVIHVTKEVKEVATLSCGHNVSVEELAQTRIYWQKEKKMVLTMMSGDMNIWPEYKNRTIFDITNNLSIVILALRPSDEGTYECVVLKYEKDAFKREHLAEVTLSVKADFPTPSISDFEIPTSNIRRIICSTSGGFPEPHLSWLENGEELNAINTTVSQDPETELYAVSSKLDFNMTTNHSFMCLIKYGHLRVNQTFNWNTTKQEHFPDN	–	–	–	–	–	–	–	–	–	binding result (CTLA4-Fc): binds; EC50 (read off the curve) [7]: ~8 ng/mL
HCLB (antibody, human IgG4 S228P, kappa, V domains shown, humanized 18D5 variant; also called humanized 18D5 variant HCLB) VH: EVQLVQSGAEVKKPGESLRISCKASGYSFTSYWVHWVRQMPGKGLEWMGNIDPSDSDTHYSPSFQGHVTLSVDKSISTAYLQLSSLKASDTAMYYCVRGGTGTMAWFAYWGQGTLVTVSS VL: DVVMTQSPLSLPVTLGQPASISCRSSQSLVHSYGNTYLYWFQQRPGQSPRLLIYRVSNRFSGVPDRFSGSGSGTDFTLKISRVEAEDVGVYYCFQGTHVPYTFGGGTKVEIKR	–	–	–	5.59	–	–	–	–	–	–
HALB (antibody, human IgG4 S228P, kappa, V domains shown, humanized 18D5 variant; also called humanized 18D5 variant HALB) VH: EVQLVQSGAEVKKPGESLRISCKASGYTFTSYWVHWVRQMPGKGLEWIGNIDPSDSDTHYNQKFKDHVTLSVDKSISTAYLQLSSLKASDTAMYYCVRGGTGTMAWFAYWGQGTLVTVSS VL: DVVMTQSPLSLPVTLGQPASISCRSSQSLVHSYGNTYLYWFQQRPGQSPRLLIYRVSNRFSGVPDRFSGSGSGTDFTLKISRVEAEDVGVYYCFQGTHVPYTFGGGTKVEIKR	–	–	–	–	–	–	–	–	2.53	–
HBLA (antibody, human IgG4 S228P, kappa, V domains shown, humanized 18D5 variant; also called humanized 18D5 variant HBLA) VH: EVQLVQSGAEVKKPGESLRISCKASGYSFTSYWVHWVRQMPGKGLEWMGNIDPSDSDTHYNQKFKDHVTLSVDKSISTAYLQLSSLKASDTAMYYCVRGGTGTMAWFAYWGQGTLVTVSS VL: DVVMTQSPLSLPVTLGQPASISCRSSQSLVHSYGNTYLYWYQQRPGQSPRLLIYRVSNRFSGVPDRFSGSGSGTDFTLKISRVEAEDVGVYFCFQGTHVPYTFGGGTKVEIKR	–	–	–	–	–	–	–	–	2.68	–
HBLB (antibody, human IgG4 S228P, kappa, V domains shown, humanized 18D5 variant; also called humanized 18D5 variant HBLB) VH: EVQLVQSGAEVKKPGESLRISCKASGYSFTSYWVHWVRQMPGKGLEWMGNIDPSDSDTHYNQKFKDHVTLSVDKSISTAYLQLSSLKASDTAMYYCVRGGTGTMAWFAYWGQGTLVTVSS VL: DVVMTQSPLSLPVTLGQPASISCRSSQSLVHSYGNTYLYWFQQRPGQSPRLLIYRVSNRFSGVPDRFSGSGSGTDFTLKISRVEAEDVGVYYCFQGTHVPYTFGGGTKVEIKR	–	–	–	–	–	–	–	–	2.95	–
HELB (antibody, human IgG4 S228P, kappa, V domains shown, humanized 18D5 variant; also called humanized 18D5 variant HELB) VH: EVQLVQSGAEVKKPGESLRISCKASGYSFTSYWVHWVRQMPGKGLEWMGNIDPSDSDTHYSPSFQGHVTLSVDKSISTAYLQLSSLKASDTAMYYCVRGGTGTLAWFAYWGQGTLVTVSS VL: DVVMTQSPLSLPVTLGQPASISCRSSQSLVHSYGNTYLYWFQQRPGQSPRLLIYRVSNRFSGVPDRFSGSGSGTDFTLKISRVEAEDVGVYYCFQGTHVPYTFGGGTKVEIKR	–	–	–	4.13	–	–	–	–	–	–

From patent US20210179728A1 (OSE IMMUNOTHERAPEUTICS, published 2021)
